Patent US20090156483A1 (IPSEN PHARMA S A S, published 2009)
Blank lines part the entries; values can stand above or below the binder they belong to. *1 amine or outer side, *2 acyl side, *3 side chain or, on linkers, in order; H or OH if unused. Where no end group is shown, it is not given here. [ ]: non-standard residue; d: D form. The star is where a group is joined. Glu(NH-hexyl) = N5-hexyl-L-glutamine, CCCCCCNC(=O)CC[C@H](N[*:1])C(=O)[*:2]; Biotin = O=C1N[C@H]2[C@H](CS[C@H]2CCCCC(=O)*)N1; Myristoyl = CCCCCCCCCCCCCC(=O)*; Octanoyl = CCCCCCCC(=O)*; Aib = CC(C)(N)C(=O)O

Target: T1, human GH secretagogue receptor (human, UniProt Q92847 1-366)
T1 construct: whole, on cells; the Ca2+ assay used the whole cells; also called hGHS-R; ghrelin receptor
T1 sequence (Q92847 whole entry): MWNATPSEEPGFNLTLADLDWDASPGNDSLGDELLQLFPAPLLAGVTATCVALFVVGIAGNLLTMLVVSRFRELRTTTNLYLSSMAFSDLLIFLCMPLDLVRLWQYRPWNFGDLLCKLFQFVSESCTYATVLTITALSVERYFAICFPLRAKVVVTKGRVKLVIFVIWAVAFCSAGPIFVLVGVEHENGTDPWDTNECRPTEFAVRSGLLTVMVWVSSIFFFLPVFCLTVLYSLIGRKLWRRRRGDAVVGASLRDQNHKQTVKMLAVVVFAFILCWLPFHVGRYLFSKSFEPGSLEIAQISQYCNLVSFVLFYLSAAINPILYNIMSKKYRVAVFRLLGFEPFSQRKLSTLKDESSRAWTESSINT
Experiment: radioligand competition, (125I)ghrelin on membranes of CHO-K1 cells expressing hGHS-R
Description: Membranes for radioligand binding studies can be and were prepared by homogenization of the foregoing CHO-K1 cells expressing the human recombinant GHS receptor in about 20 ml of ice-cold 50 mM Tris-HCl with a Brinkman Polytron® (Brinkman®, Westbury, N.Y., U.S.A.) at setting 6 for about 15 seconds. The homogenates were washed twice by centrifugation (39,000 g/10 minutes) and the final pellets were resuspended in about 50 mM Tris-HCl containing 2.5 mM MgCl₂ and 0.1% bovine serum albumin (BSA). For the selected assay, aliquots of approximately 0.4 ml were incubated with 0.05 nM (¹²⁵I)ghrelin (˜2000 Ci/mmol; Perkin Elmer Life Sciences@, Boston, Mass., U.S.A.) with and without 0.05 ml of unlabeled competing test peptide. After approximately 60 minutes at 4° C., the bound (¹²⁵I)ghrelin was separated from the free ghrelin by rapid filtration through GF/C filters (available from Brandel®, Gaithersburg, Md., U.S.A.) which were pre-soaked in 0.5% polyethyleneimine/0.1% BSA. The filters were then washed 3 times with 5-ml aliquots of ice-cold 50 mM Tris-HCl and 0.1% BSA. The bound radioactivity trapped on the filters was counted by gamma spectrometry (using a spectrometer from Wallace LKB®, Gaithersburg, Md., U.S.A.). Specific binding was determined by subtracting (¹²⁵I)ghrelin bound in the presence of 1000 nM ghrelin (available from Bachem®, Torrence, Calif., U.S.A.) from the total (¹²⁵I)ghrelin bound.
A selection of the preferred embodiments was tested using the receptor binding assay discussed above and the results are reported in Table 2 presented below.

- Ki: 2.94 nM
B1: (Ac-Gly^1,Aib^2,8,Glu(NH-hexyl)^3,17)hGhrelin(1-28)-NH2 (peptide)
peptide: GXEFLSPXHQRVQQRKESKKPPAKLQPR
modifications: N-terminal acetyl (Ac-Gly at 1); Aib at 2 and 8; Glu(NH-hexyl) at 3 and 17; C-terminal amide
notes: Synthetic ghrelin analog; calculated MW 3448.16, found 3447.98

- Ki: 24.4 nM
B2: (Ac-Aib^1,Aib^2,10,Glu(NH-hexyl)^3,17)hGhrelin(1-28)-NH2 (peptide)
peptide: Ac-[Aib][Aib][Glu(NH-hexyl)]FLSPEH[Aib]RVQQRK[Glu(NH-hexyl)]SKKPPAKLQPR-NH2
SMILES: CCCCCCNC(=O)CC[C@H](NC(=O)[C@H](CCCCN)NC(=O)[C@H](CCCNC(=N)N)NC(=O)[C@H](CCC(N)=O)NC(=O)[C@H](CCC(N)=O)NC(=O)[C@@H](NC(=O)[C@H](CCCNC(=N)N)NC(=O)C(C)(C)NC(=O)[C@H](Cc1c[nH]cn1)NC(=O)[C@H](CCC(=O)O)NC(=O)[C@@H]1CCCN1C(=O)[C@H](CO)NC(=O)[C@H](CC(C)C)NC(=O)[C@H](Cc1ccccc1)NC(=O)[C@H](CCC(=O)NCCCCCC)NC(=O)C(C)(C)NC(=O)C(C)(C)NC(C)=O)C(C)C)C(=O)N[C@@H](CO)C(=O)N[C@@H](CCCCN)C(=O)N[C@@H](CCCCN)C(=O)N1CCC[C@H]1C(=O)N1CCC[C@H]1C(=O)N[C@@H](C)C(=O)N[C@@H](CCCCN)C(=O)N[C@@H](CC(C)C)C(=O)N[C@@H](CCC(N)=O)C(=O)N1CCC[C@H]1C(=O)N[C@@H](CCCNC(=N)N)C(N)=O
notes: Synthetic ghrelin analog; calculated MW 3477.19, found 3477.40; also called #158

- Ki: 0.63 nM
B3: (Aib^1,2,10,Glu(NH-hexyl)^3,17)hGhrelin(1-28)-NH2 (peptide)
peptide: [Aib][Aib][Glu(NH-hexyl)]FLSPEH[Aib]RVQQRK[Glu(NH-hexyl)]SKKPPAKLQPR-NH2
modifications: N-terminus assumed
SMILES: CCCCCCNC(=O)CC[C@H](NC(=O)[C@H](CCCCN)NC(=O)[C@H](CCCNC(=N)N)NC(=O)[C@H](CCC(N)=O)NC(=O)[C@H](CCC(N)=O)NC(=O)[C@@H](NC(=O)[C@H](CCCNC(=N)N)NC(=O)C(C)(C)NC(=O)[C@H](Cc1c[nH]cn1)NC(=O)[C@H](CCC(=O)O)NC(=O)[C@@H]1CCCN1C(=O)[C@H](CO)NC(=O)[C@H](CC(C)C)NC(=O)[C@H](Cc1ccccc1)NC(=O)[C@H](CCC(=O)NCCCCCC)NC(=O)C(C)(C)NC(=O)C(C)(C)N)C(C)C)C(=O)N[C@@H](CO)C(=O)N[C@@H](CCCCN)C(=O)N[C@@H](CCCCN)C(=O)N1CCC[C@H]1C(=O)N1CCC[C@H]1C(=O)N[C@@H](C)C(=O)N[C@@H](CCCCN)C(=O)N[C@@H](CC(C)C)C(=O)N[C@@H](CCC(N)=O)C(=O)N1CCC[C@H]1C(=O)N[C@@H](CCCNC(=N)N)C(N)=O
notes: Synthetic ghrelin analog; calculated MW 3435.16, found 3435.00; also called #70

- Ki: 0.4 nM
B4: (Aib^2,10,Glu(NH-hexyl)^3,17)hGhrelin(1-28)-NH2 (peptide)
peptide: G[Aib][Glu(NH-hexyl)]FLSPEH[Aib]RVQQRK[Glu(NH-hexyl)]SKKPPAKLQPR-NH2
modifications: N-terminus assumed
SMILES: CCCCCCNC(=O)CC[C@H](NC(=O)[C@H](CCCCN)NC(=O)[C@H](CCCNC(=N)N)NC(=O)[C@H](CCC(N)=O)NC(=O)[C@H](CCC(N)=O)NC(=O)[C@@H](NC(=O)[C@H](CCCNC(=N)N)NC(=O)C(C)(C)NC(=O)[C@H](Cc1c[nH]cn1)NC(=O)[C@H](CCC(=O)O)NC(=O)[C@@H]1CCCN1C(=O)[C@H](CO)NC(=O)[C@H](CC(C)C)NC(=O)[C@H](Cc1ccccc1)NC(=O)[C@H](CCC(=O)NCCCCCC)NC(=O)C(C)(C)NC(=O)CN)C(C)C)C(=O)N[C@@H](CO)C(=O)N[C@@H](CCCCN)C(=O)N[C@@H](CCCCN)C(=O)N1CCC[C@H]1C(=O)N1CCC[C@H]1C(=O)N[C@@H](C)C(=O)N[C@@H](CCCCN)C(=O)N[C@@H](CC(C)C)C(=O)N[C@@H](CCC(N)=O)C(=O)N1CCC[C@H]1C(=O)N[C@@H](CCCNC(=N)N)C(N)=O
notes: Synthetic ghrelin analog; calculated MW 3407.10, found 3407.20; also called #58

- Ki: 214 nM
B5: (Aib^2,8,Ser^3,Glu(NH-hexyl)^17)hGhrelin(1-28)-NH2 (peptide)
peptide: GXSFLSPXHQRVQQRKESKKPPAKLQPR
modifications: Aib at 2 and 8; Ser at 3 (plain, not acylated); Glu(NH-hexyl) at 17; C-terminal amide
notes: Synthetic ghrelin analog; calculated MW 3280.91 (fits an unacylated Ser 3), found 3281.60; also called #219

- Ki: 0.07 nM
B6: (Lys(biotinyl)^17)hGhrelin(1-28)-NH2 (peptide)
peptide: GSS(Octanoyl)FLSPEHQRVQQRKK(Biotin)SKKPPAKLQPR-NH2
modifications: N-terminus assumed
SMILES: CCCCCCCC(=O)OC[C@H](NC(=O)[C@H](CO)NC(=O)CN)C(=O)N[C@@H](Cc1ccccc1)C(=O)N[C@@H](CC(C)C)C(=O)N[C@@H](CO)C(=O)N1CCC[C@H]1C(=O)N[C@@H](CCC(=O)O)C(=O)N[C@@H](Cc1c[nH]cn1)C(=O)N[C@@H](CCC(N)=O)C(=O)N[C@@H](CCCNC(=N)N)C(=O)N[C@H](C(=O)N[C@@H](CCC(N)=O)C(=O)N[C@@H](CCC(N)=O)C(=O)N[C@@H](CCCNC(=N)N)C(=O)N[C@@H](CCCCN)C(=O)N[C@@H](CCCCNC(=O)CCCC[C@@H]1SC[C@@H]2NC(=O)N[C@@H]21)C(=O)N[C@@H](CO)C(=O)N[C@@H](CCCCN)C(=O)N[C@@H](CCCCN)C(=O)N1CCC[C@H]1C(=O)N1CCC[C@H]1C(=O)N[C@@H](C)C(=O)N[C@@H](CCCCN)C(=O)N[C@@H](CC(C)C)C(=O)N[C@@H](CCC(N)=O)C(=O)N1CCC[C@H]1C(=O)N[C@@H](CCCNC(=N)N)C(N)=O)C(C)C
notes: Synthetic ghrelin analog; calculated MW 3595.27, found 3594.90; also called #78

- Ki: 0.99 nM
B7: (Ac-Gly^1,Aib^2,10,Glu(NH-hexyl)^3,17)hGhrelin(1-28)-NH2 (peptide)
peptide: Ac-G[Aib][Glu(NH-hexyl)]FLSPEH[Aib]RVQQRK[Glu(NH-hexyl)]SKKPPAKLQPR-NH2
SMILES: CCCCCCNC(=O)CC[C@H](NC(=O)[C@H](CCCCN)NC(=O)[C@H](CCCNC(=N)N)NC(=O)[C@H](CCC(N)=O)NC(=O)[C@H](CCC(N)=O)NC(=O)[C@@H](NC(=O)[C@H](CCCNC(=N)N)NC(=O)C(C)(C)NC(=O)[C@H](Cc1c[nH]cn1)NC(=O)[C@H](CCC(=O)O)NC(=O)[C@@H]1CCCN1C(=O)[C@H](CO)NC(=O)[C@H](CC(C)C)NC(=O)[C@H](Cc1ccccc1)NC(=O)[C@H](CCC(=O)NCCCCCC)NC(=O)C(C)(C)NC(=O)CNC(C)=O)C(C)C)C(=O)N[C@@H](CO)C(=O)N[C@@H](CCCCN)C(=O)N[C@@H](CCCCN)C(=O)N1CCC[C@H]1C(=O)N1CCC[C@H]1C(=O)N[C@@H](C)C(=O)N[C@@H](CCCCN)C(=O)N[C@@H](CC(C)C)C(=O)N[C@@H](CCC(N)=O)C(=O)N1CCC[C@H]1C(=O)N[C@@H](CCCNC(=N)N)C(N)=O
notes: Synthetic ghrelin analog; calculated MW 3449.14, found 3449.20; also called #146

- Ki: 1.28 nM
B8: (Ac-Gly^1,Aib^2,10,Glu(NH-hexyl)^3,Lys(biotinyl)^17)hGhrelin(1-28)-NH2 (peptide)
peptide: Ac-G[Aib][Glu(NH-hexyl)]FLSPEH[Aib]RVQQRKK(Biotin)SKKPPAKLQPR-NH2
SMILES: CCCCCCNC(=O)CC[C@H](NC(=O)C(C)(C)NC(=O)CNC(C)=O)C(=O)N[C@@H](Cc1ccccc1)C(=O)N[C@@H](CC(C)C)C(=O)N[C@@H](CO)C(=O)N1CCC[C@H]1C(=O)N[C@@H](CCC(=O)O)C(=O)N[C@@H](Cc1c[nH]cn1)C(=O)NC(C)(C)C(=O)N[C@@H](CCCNC(=N)N)C(=O)N[C@H](C(=O)N[C@@H](CCC(N)=O)C(=O)N[C@@H](CCC(N)=O)C(=O)N[C@@H](CCCNC(=N)N)C(=O)N[C@@H](CCCCN)C(=O)N[C@@H](CCCCNC(=O)CCCC[C@@H]1SC[C@@H]2NC(=O)N[C@@H]21)C(=O)N[C@@H](CO)C(=O)N[C@@H](CCCCN)C(=O)N[C@@H](CCCCN)C(=O)N1CCC[C@H]1C(=O)N1CCC[C@H]1C(=O)N[C@@H](C)C(=O)N[C@@H](CCCCN)C(=O)N[C@@H](CC(C)C)C(=O)N[C@@H](CCC(N)=O)C(=O)N1CCC[C@H]1C(=O)N[C@@H](CCCNC(=N)N)C(N)=O)C(C)C
notes: Synthetic ghrelin analog; calculated MW 3591.32, found 3591.50; also called #166

- Ki: 1.68 nM
B9: (Ac-Gly^1,Aib^2,Glu(NH-hexyl)^3,17)hGhrelin(1-28)-NH2 (peptide)
peptide: GXEFLSPEHQRVQQRKESKKPPAKLQPR
modifications: N-terminal acetyl (Ac-Gly at 1); Aib at 2; Glu(NH-hexyl) at 3 and 17; C-terminal amide
notes: Synthetic ghrelin analog; calculated MW 3492.17, found 3492.00

- Ki: 0.16 nM
B10: (Aib^2,Lys(myristyl)^17)hGhrelin(1-28)-NH2 (peptide)
peptide: G[Aib]S(Octanoyl)FLSPEHQRVQQRKK(Myristoyl)SKKPPAKLQPR-NH2
modifications: N-terminus assumed
SMILES: CCCCCCCCCCCCCC(=O)NCCCC[C@H](NC(=O)[C@H](CCCCN)NC(=O)[C@H](CCCNC(=N)N)NC(=O)[C@H](CCC(N)=O)NC(=O)[C@H](CCC(N)=O)NC(=O)[C@@H](NC(=O)[C@H](CCCNC(=N)N)NC(=O)[C@H](CCC(N)=O)NC(=O)[C@H](Cc1c[nH]cn1)NC(=O)[C@H](CCC(=O)O)NC(=O)[C@@H]1CCCN1C(=O)[C@H](CO)NC(=O)[C@H](CC(C)C)NC(=O)[C@H](Cc1ccccc1)NC(=O)[C@H](COC(=O)CCCCCCC)NC(=O)C(C)(C)NC(=O)CN)C(C)C)C(=O)N[C@@H](CO)C(=O)N[C@@H](CCCCN)C(=O)N[C@@H](CCCCN)C(=O)N1CCC[C@H]1C(=O)N1CCC[C@H]1C(=O)N[C@@H](C)C(=O)N[C@@H](CCCCN)C(=O)N[C@@H](CC(C)C)C(=O)N[C@@H](CCC(N)=O)C(=O)N1CCC[C@H]1C(=O)N[C@@H](CCCNC(=N)N)C(N)=O
notes: Synthetic ghrelin analog; calculated MW 3577.35, found 3577.2; also called #217
